B1: αN-catenin residues 4-193 fused to the GAL4-DBD (plasmid pGBT9ANCTN(EcoRI-BamHI)) (other, UniProt P04386 1-147, looked up)
chain: MKLLSSIEQACDICRLKKLKCSKEKPKCAKCLKNNWECRYSPKTKRSPLTRAHLTEVESRLERLEQLFLLIFPREDLDMILKMDSLQDIKALLTGLFVQDNVNKDAVTDRLASVETDMPLTLRQHRISATSSSEESSNKGQRQLTVSATSPIILKWDPKSLEIRTLTVERLLEPLVTQVTTLVNTSNKGPSGKKKGRSKKAHVLAASVEQATQNFLEKGEQIAKESQDLKEELVAAVEDVRKQGETMRIASSEFADDPCSSVKRGTMVRAARALLSAVTRLLILADMADVMRLLSHLKIVEEALEAVKNATNEQDLANRFKEFGKEMVKLNYVAARR
B2: αN-catenin residues 535-787 fused to the GAL4-DBD (plasmid pGBT9ANCTN(PstI 1618-2375)) (other, UniProt P04386 1-147, looked up)
chain: MKLLSSIEQACDICRLKKLKCSKEKPKCAKCLKNNWECRYSPKTKRSPLTRAHLTEVESRLERLEQLFLLIFPREDLDMILKMDSLQDIKALLTGLFVQDNVNKDAVTDRLASVETDMPLTLRQHRISATSSSEESSNKGQRQLTVSTLDRTAGAIRGRAARVIHIINAEMENYEAGVYTEKVLEATKLLSETVMPRFAEQVEVAIEALSANVPQPFEENEFIDASRLVYDGVRDIRKAVLMIRTPEELEDDSDFEQEDYDVRSRTSVQTEDDQLIAGQSARAIMAQLPQEEKAKIAEQVEIFHQEKSKLDAEVAKWDDSGNDIIVLAKQMCMIMMEMTDFTRGKGPLKNTSDVINAAKKIAEAGSRMDKLARAVADQCPDSACKQDLLAYLQRIALYCH
B3: ANC-2H01 initial two-hybrid clone (part of ANC-2H01 fused to the GAL4-AD, plasmid pGAD10ANC2H01) (other, not shown: large carriers)
chain: IADGFNGIFSDHCYSVCSMRQPDLKYFDNKDDDSDTETSNDLPKFADGIKARNRNQNYLVPSPVLRILDHTAFSTEKSADIVICDEECDSPESVNQQTQEESPIEVHTAEDVPIAVEVHAISEDYDIETENNSSESLQDQTDEEPPAKLCKILDKSQALNVTAQQKWPLLRANSSGLYKCELCEFNSKYFSDLKQHMILKHKRTDSNVCRVCKESFSTNMLLIEHAKLHEEDPYICKYCDYKTVIFENLSQHIADTHFSDHLYWCEQCDVQFSSSSELYLHFQEHSCDEQYLCQFCEHETNDPEDLHSHVVNEHACKLIELSDKYNNGEHGQYSLLSKITFDKCKNFFVCQVCGFRSRLHTNVNRHVAIEHTKIFPHVCDDCGKGFSSMLEYCKHLNSHLSEGIYLCQYCEYSTGQIEDLKIHLDFKHSADLPHKCSDCLMRFGNERELISHLPVHETT
notes: 27-485 is derived from 459 of 485 residues; also called ANC-2H01 clone; initial ANC-2H01 two-hybrid clone

Columns and labels:
[1] = biological target: T1, human αE-catenin (full-length; expressed from pJ6αECTN in HEK293T cells, also endogenous in HEK293T) (human, UniProt P35221 1-906); test: co-immunoprecipitation from cotransfected HEK293T cells, Western blot
T1 construct: also called PJ6αECTN(37-3433); pJ6αE-catenin
T1 sequence (looked up): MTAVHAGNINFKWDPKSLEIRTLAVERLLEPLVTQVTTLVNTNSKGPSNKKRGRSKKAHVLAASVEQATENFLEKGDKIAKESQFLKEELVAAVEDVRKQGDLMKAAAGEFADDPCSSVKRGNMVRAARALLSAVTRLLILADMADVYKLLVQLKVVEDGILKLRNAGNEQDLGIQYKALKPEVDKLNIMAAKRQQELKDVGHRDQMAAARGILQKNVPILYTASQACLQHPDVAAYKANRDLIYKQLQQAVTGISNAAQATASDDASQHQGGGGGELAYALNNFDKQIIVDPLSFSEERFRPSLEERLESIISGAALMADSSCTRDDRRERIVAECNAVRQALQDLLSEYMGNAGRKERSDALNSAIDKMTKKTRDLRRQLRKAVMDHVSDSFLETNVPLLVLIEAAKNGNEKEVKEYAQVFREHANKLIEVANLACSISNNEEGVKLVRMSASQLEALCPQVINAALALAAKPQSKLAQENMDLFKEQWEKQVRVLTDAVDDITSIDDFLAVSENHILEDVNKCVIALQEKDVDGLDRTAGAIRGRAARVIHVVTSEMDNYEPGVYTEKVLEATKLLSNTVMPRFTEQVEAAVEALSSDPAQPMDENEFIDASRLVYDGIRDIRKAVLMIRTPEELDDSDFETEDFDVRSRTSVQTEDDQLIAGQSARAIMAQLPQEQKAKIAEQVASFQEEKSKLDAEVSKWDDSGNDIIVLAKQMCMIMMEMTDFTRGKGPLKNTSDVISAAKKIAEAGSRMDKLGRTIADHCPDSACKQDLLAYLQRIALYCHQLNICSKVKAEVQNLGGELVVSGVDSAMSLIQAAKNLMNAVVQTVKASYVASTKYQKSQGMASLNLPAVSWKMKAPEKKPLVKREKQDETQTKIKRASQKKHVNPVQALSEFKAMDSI

[2] = biological target: T2, human αN-catenin fused to the GAL4-DBD in pGBT9 (plasmid pGBT9ANCTN) (human, UniProt P04386 1-147; P26232 4-905, limits assumed); test: yeast two-hybrid, strain Y190 (FIG. 16)
T2 construct: Construction of pGBT9ANCTN is not described; also called pGBT9αNCTN; pGBT9-αNCTN

[3] = biological target: B3; test: yeast two-hybrid (FIG. 4)
[4] = biological target: T3, human αE-catenin fused to the GAL4-DBD (plasmid pGBT9αECTN) (human, UniProt P04386 1-147; P35221 1-906, limits assumed); test: yeast two-hybrid, strain HF7c (FIG. 4)
T3 construct: also called full-length αE-catenin

[5] = biological target: T4, αN-catenin residues 543-906 fused to the GAL4-DBD (plasmid pGBT9ANCTN-(XhoI-SalI)) (human, UniProt P04386 1-147; P26232 543-906); test: yeast two-hybrid (FIG. 4)
T4 construct: the UniProt canonical isoform differs near the C-terminus

[6] = biological target: T2, human αN-catenin fused to the GAL4-DBD …; test: yeast two-hybrid (FIG. 4)
[7] = biological target: B2; test: yeast two-hybrid (FIG. 4)
[8] = biological target: αN-catenin residues 4-535 fused to the GAL4-DBD (plasmid pGBT9ANCTN(EcoRI-PstI)) (human, UniProt P04386 1-147; P26232 4-535); test: yeast two-hybrid (FIG. 4)
[9] = biological target: B1; test: yeast two-hybrid (FIG. 4)

Binder	binding result [2]	binding result [4]	binding result [5]	binding result [6]	binding result [7]	binding result [8]	binding result [9]	also measured
E-tagged full-length ANC-2H01 protein (expression plasmid pEFBOSANC-2H01E), expressed in HEK293T cells (other, also called pEFBOS-EANC-2H01; E-tagged ANC-2H01; not shown: E-tag derived from plasmid pCANTAB5E (Pharmacia), at the amino-terminal side) MNEYPKKRKRKTLHPSRYSDSSGISRIADGFNGIFSDHCYSVCSMRQPDLKYFDNKDDDSDTETSNDLPKFADGIKARNRNQNYLVPSPVLRILDHTAFSTEKSADIVICDEECDSPESVNQQTQEESPIEVHTAEDVPIAVEVHAISEDYDIETENNSSESLQDQTDEEPPAKLCKILDKSQALNVTAQQKWPLLRANSSGLYKCELCEFNSKYFSDLKQHMILKHKRTDSNVCRVCKESFSTNMLLIEHAKLHEEDPYICKYCDYKTVIFENLSQHIADTHFSDHLYWCEQCDVQFSSSSELYLHFQEHSCDEQYLCQFCEHETNDPEDLHSHVVNEHACKLIELSDKYNNGEHGQYSLLSKITFDKCKNFFVCQVCGFRSRLHTNVNRHVAIEHTKIFPHVCDDCGKGFSSMLEYCKHLNSHLSEGIYLCQYCEYSTGQIEDLKIHLDFKHSADLPHKCSDCLMRFGNERELISHLPVHETT								binding result [1]: no binding
zinc fingers 4 to 5 of ANC-2H01 fused to the GAL4-AD (plasmid pACT2ANC2H01-ZF4-5) (other, not shown: large carriers, also called pACT2ANC2H01Zn4-5) LYWCEQCDVQFSSSSELYLHFQEHSCDEQYLCQFCEHETNDPEDLHSHVVNEHACKLIELSDK	no binding							
B1								binding result [3]: no binding
B2								binding result [3]: no binding
B3		no binding	no binding					
ANC-2H01/BamHI (amino-terminal part of the ANC-2H01 clone plus two of the nine zinc fingers, fused to the GAL4-AD in pGAD10) (other, not shown: large carriers, 700-bp BamHI fragment of the initial clone; only the stated part stood in the assay; also called pGAD10ANC-2H01/BamHI) IADGFNGIFSDHCYSVCSMRQPDLKYFDNKDDDSDTETSNDLPKFADGIKARNRNQNYLVPSPVLRILDHTAFSTEKSADIVICDEECDSPESVNQQTQEESPIEVHTAEDVPIAVEVHAISEDYDIETENNSSESLQDQTDEEPPAKLCKILDKSQALNVTAQQKWPLLRANSSGLYKCELCEFNSKYFSDLKQHMILKHKRTDSNVCRVCKESFSTNMLLIEHAKLHEEDP		no binding	no binding	no binding	no binding	no binding	no binding	
ANC-2H01/600 (amino-terminal part of the initial ANC-2H01 plus half of the first zinc finger, fused to the GAL4-AD in pGAD10) (other, not shown: large carriers, whole entry named, only the stated part stood in the assay) IADGFNGIFSDHCYSVCSMRQPDLKYFDNKDDDSDTETSNDLPKFADGIKARNRNQNYLVPSPVLRILDHTAFSTEKSADIVICDEECDSPESVNQQTQEESPIEVHTAEDVPIAVEVHAISEDYDIETENNSSESLQDQTDEEPPAKLCKILDKSQALNVTAQQKWPLLRANSSGLYKCELCEFNSKY		no binding	no binding	no binding	no binding	no binding	no binding	
ANC-2H01/500 (amino-terminal part of ANC-2H01 lacking any functional zinc finger, fused to the GAL4-AD in pGAD10) (other, not shown: large carriers, whole entry named, only the stated part stood in the assay) IADGFNGIFSDHCYSVCSMRQPDLKYFDNKDDDSDTETSNDLPKFADGIKARNRNQNYLVPSPVLRILDHTAFSTEKSADIVICDEECDSPESVNQQTQEESPIEVHTAEDVPIAVEVHAISEDYDIETENNSSESLQDQTDEEPPAKLCKILDKSQALNVTAQQKW		no binding	no binding	no binding	no binding	no binding	no binding	
zinc fingers 1 to 3 of ANC-2H01 fused to the GAL4-AD (plasmid pACT2ANC2H01ZF1-3) (other, not shown: large carriers) LYKCELCEFNSKYFSDLKQHMILKHKRTDSNVCRVCKESFSTNMLLIEHAKLHEEDPYICKYCDYKTVIFENLSQHIADTHFSDHL	no binding							
zinc fingers 1 to 5 of ANC-2H01 fused to the GAL4-AD (plasmid pACT2ANC2H01ZF1-5) (other, not shown: large carriers) LYKCELCEFNSKYFSDLKQHMILKHKRTDSNVCRVCKESFSTNMLLIEHAKLHEEDPYICKYCDYKTVIFENLSQHIADTHFSDHLYWCEQCDVQFSSSSELYLHFQEHSCDEQYLCQFCEHETNDPEDLHSHVVNEHACKLIELSDK	no binding							

Source: patent US6767720 (VLAAMS INTERUNIVERSITAIR INSTITUUT VOOR BIOTECHNOLOGIE VZW, dated 2004)
